Target: the molecule itself
Test: cross-linking

B1: full-length Mycobacterium tuberculosis MmpL3 (natural protein)
chain: MFAWWGRTVYRYRFIVIGVMVALCLGGGVFGLSLGKHVTQSGFYDDGSQSVQASVLGDQVYGRDRSGHIVAIFQAPAGKTVDDPAWSKKVVDELNRFQQDHPDQVLGWAGYLRASQATGMATADKKYTFVSIPLKGDDDDTILNNYKAIAPDLQRLDGGTVKLAGLQPVAEALTGTIATDQRRMEVLALPLVAVVLFFVFGGVIAAGLPVMVGGLCIAGALGIMRFLAIFGPVHYFAQPVVSLIGLGIAIDYGLFIVSRFREEIAEGYDTETAVRRTVITAGRTVTFSAVLIVASAIGLLLFPQGFLKSLTYATIASVMLSAILSITVLPACLGILGKHVDALGVRTLFRVPFLANWKISAAYLNWLADRLQRTKTREEVEAGFWGKLVNRVMKRPVLFAAPIVIIMILLIIPVGKLSLGGISEKYLPPTNSVRQAQEEFDKLFPGYRTNPLTLVIQTSNHQPVTDAQIADIRSKAMAIGGFIEPDNDPANMWQERAYAVGASKDPSVRVLQNGLINPADASKKLTELRAITPPKGITVLVGGTPALELDSIHGLFAKMPLMVVILLTTTIVLMFLAFGSVVLPIKATLMSALTLGSTMGILTWIFVDGHFSKWLNFTPTPLTAPVIGLIIALVFGLSTDYEVFLVSRMVEARERGMSTQEAIRIGTAATGRIITAAALIVAVVAGAFVFSDLVMMKYLAFGLMAALLLDATVVRMFLVPSVMKLLGDDCWWAPRWARRLQTRIGLGEIHLPDERKRPVSNGRPARPPVTAGLVAARAAGDPRPPHDPTHPLAESPRPARSSPASSPELTPALEATAAPAAPSGASTTRMQIGSSTEPPTTRLAAAGRSVQSPASTPPPTPTPPSAPSAGQTRAMPLAANRSTDAAGDPAEPTAALPIIRSDGDDSEAATEQLNARGTSDKTRQRRRGGGALSAQDLLRREGRL
- binding result: binds
